Molecular target: T1, mouse soluble ST2 (sST2) (mouse, UniProt P14719-2 27-337, N-linked glycans (shown by PNGase F))
T1 sequence: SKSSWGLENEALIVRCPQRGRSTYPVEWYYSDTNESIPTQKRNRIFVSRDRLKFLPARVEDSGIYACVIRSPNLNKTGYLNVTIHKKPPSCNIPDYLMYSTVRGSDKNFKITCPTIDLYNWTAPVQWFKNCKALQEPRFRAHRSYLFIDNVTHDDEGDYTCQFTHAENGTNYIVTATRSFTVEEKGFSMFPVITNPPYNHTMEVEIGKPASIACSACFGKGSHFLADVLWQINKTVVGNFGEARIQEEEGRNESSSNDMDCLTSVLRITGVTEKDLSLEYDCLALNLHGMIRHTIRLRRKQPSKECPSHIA
Assay: ITC

B1: mouse IL-33 (residues 109-266) (ligand)
chain: SIQGTSLLTQSPASLSTYNDQSVSFVLENGCYVINVDDSGKDQEQDQVLLRYYESPCPASQSGDGVDGKKLMVNMSPIKDTDIWLHANDKDYSVELQRGDVSPPEQAFFVLHKKSSDFVSFECKNLPGTYIGVKDNQLALVEEKDESCNNIMFKLSKI
- Kd: 4.59 nM

— publication PMC7610802 (The Journal of allergy and clinical immunology, 2019)
